First the molecules themselves.
B1: VH:VL chains; a variant is named by its letters at X, in order (parent)
chain 1: QVQLVQSGAEVKKPGASVKVSCKASGYTFTDYXMHWVRQAPGQGLEWMGXVNPNXXXTTYNQKFEGRVTMTTDTSTSTAYMELRSLRSDDTAVYYCARXNXLDXWGQGTTVTVSS
chain 2: DIQMTQSPSSLSASVGDRVTITCSVSSSVSSIYLHWYQQKPGKAPKLLIYSTSNLASGVPSRFSGSGSGTDFTLTISSLQPEDFATYYCQVYSGYPLTFGGGTKVEIK

The series covers variants of B1. As to the kind of experiment: yeast display scFab, FACS + sequencing. Summed up: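 Heavy-chain CDR mutant scFab yeast surface library, FACS-sorted after labelling with biotinylated ovalbumin (260 μg/mL in PBSB, 3 h, room temperature) or soluble membrane proteins (130 μg/mL, 20 min on ice), plus anti-Myc. Gates collected the top 25% and bottom 10% of binders, and samples from two replicates were deep sequenced. Non-specific binding call: a sequence was positive if found in ≥3 of 4 positive samples (membrane protein and ovalbumin pooled) and no negatives, and negative by the converse rule.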
YKERGDVV: the non-specific binding call is listed as “no binding”. YKERGDVF: the non-specific binding call is “binds”. As to SKGASAWA, the non-specific binding call is “binds”. Take YKGGSAGA: the non-specific binding call is listed as “binds”. The same measure for YKGGSAGY: “binds”; for DKGGAAGD: “no binding”. Consider DKEGGYSV, for which the non-specific binding call is on record as “no binding”.

Turning to YKEEDSLD, the non-specific binding call is “no binding”. The same measure for FKGEGSSA: “no binding”; for VKGEGDVY: “no binding”; for YKAKGASV: “binds”. As for VKAKGAAA, the entry is “binds”; as for DKEGGAVV, “no binding”. As for YKGGSSGV, the entry is “binds”; as for FKEAGAVY, “binds”.

In the case of YKARTSSS, the non-specific binding call is “binds”. Take VKGASDVV: the non-specific binding call is listed as “no binding”. As for VKGASDVA, the entry is “no binding”; as for YKAKGAAD, “binds”. As for YKAKGAAA, the entry is “binds”; as for DKAKGDGS, “no binding”. As for DKEGGDGA, the entry is “no binding”; as for DKEGGDGY, “no binding”; as for DKEGGDGV, “no binding”. With FKGEDAVA, the non-specific binding call is given as “no binding”. As for YKAGGSAS, the entry is “binds”.

Take SKEGGVGV: the non-specific binding call is listed as “binds”. Take VKGGGYGA: the non-specific binding call was “binds”. The same measure for FKGEGYGV: “binds”; for FKGEGDAA: “no binding”.

Take DKEGGDAS: the non-specific binding call is given as “no binding”. On to DKEGGDAV, for which the non-specific binding call was “no binding”.

As to SKGGSAWD, the non-specific binding call is “binds”. The same measure for VKEGGDGA: “no binding”; for SKERGDLV: “no binding”. As for VKEGGSAD, the entry is “binds”. As for YKARGSAA, the entry is “binds”; as for DKEGGSAD, “no binding”. Consider VKGGAAVY, for which the non-specific binding call is “no binding”. The same measure for SKAKGAWS: “binds”. Turning to SKAKGAWD, the non-specific binding call is “binds”. As for YKGADFGD, the entry is “binds”; as for VKARSAGV, “binds”. As to VKGAGDLA, the non-specific binding call is recorded as “no binding”. As for SKAGGSAD, the entry is “binds”; as for FKGGSSAA, “binds”.

SKAKGSAA: the non-specific binding call is “binds”. As for VKERGSVD, the entry is “binds”; as for VKAGSDVA, “no binding”. The same measure for YKARGSGA: “binds”; for YKARGSGS: “binds”; for DKGGGFAV: “no binding”. As for YKGAAFWA, the entry is “binds”. Take VKETSVLF: the non-specific binding call is on record as “binds”. As for YKARGSLY, the entry is “binds”. The same measure for YKARGSLV: “binds”; for VKEKGAWS: “no binding”; for VKEKGAWY: “binds”. The same measure for VKEKGAWV: “binds”; for FKEGNSLD: “no binding”; for VKEGGAVV: “no binding”.

In the case of AKAGSYGV, the non-specific binding call is on record as “binds”. With FKGEGDGV, the non-specific binding call is on record as “no binding”. As for SKAKGFGV, the entry is “binds”. For the variant YKERASGV, the non-specific binding call is “binds”. The same measure for YKGGGSAV: “binds”; for YKGGSAAA: “binds”. As for DKEGGAAD, the entry is “no binding”; as for DKEGGAAV, “no binding”. As for DKEGGAAA, the entry is “no binding”. Consider VKGASDGA, for which the non-specific binding call is listed as “no binding”. As to DKGEGDLA, the non-specific binding call is “no binding”.

As to YKGAGDVV, the non-specific binding call was “no binding”. The same measure for FKAGSSGV: “binds”; for FKGEGDSA: “no binding”; for YKAGGSGV: “binds”. The same measure for SKERGDAA: “no binding”. Take AKEADDVA: the non-specific binding call is on record as “no binding”. The same measure for DKGGSDVV: “no binding”.

DKGGSDVA: the non-specific binding call was “no binding”. For SKERGDWV, the non-specific binding call is given as “no binding”. As for SKERGDWY, the entry is “no binding”; as for YKGEGDGV, “no binding”; as for YKAGGYSD, “binds”.

In the case of FKAKGAWD, the non-specific binding call was “binds”. As for DKGEGDGA, the entry is “no binding”; as for DKGGSAVV, “no binding”.

With VKATAVAV, the non-specific binding call is given as “binds”. The same measure for DKGEGAGV: “no binding”. As for YKETGYAV, the entry is “binds”. The same measure for YKGAGAWA: “binds”. Turning to YKGEADGA, the non-specific binding call is “no binding”. The same measure for VKEKGDWV: “no binding”; for YKEGGAGD: “no binding”; for YKGGSDVY: “binds”. The same measure for DKGGAVWT: “no binding”; for YKGGGAGS: “binds”; for YKGGGAGA: “binds”.

Consider SKAGGVGA, for which the non-specific binding call is “binds”. The same measure for VKERGDGV: “no binding”; for FKARDSGD: “binds”; for VKGEGYGA: “binds”.

For the variant DKGEGAAA, the non-specific binding call was “no binding”.

Take DKEGGFGV: the non-specific binding call is recorded as “no binding”. For the variant DKGGGDVA, the non-specific binding call was “no binding”. As to YKARGAVY, the non-specific binding call is recorded as “binds”. The same measure for FKEGGSAA: “binds”. As for YKGGDDLA, the entry is “no binding”. As for FKARGSGV, the entry is “binds”; as for VKEKGSLF, “binds”; as for YKEGAYAD, “binds”. With VKEADAWV, the non-specific binding call is recorded as “no binding”.

For DKEGGSLD, the non-specific binding call is “no binding”.

With DKEGGSLV, the non-specific binding call was “no binding”. The same measure for YKAKGAGD: “binds”; for YKEEDDAV: “no binding”. As for YKGEGDLV, the entry is “no binding”; as for YKGEGDLA, “no binding”; as for DKEGGSSS, “no binding”. The same measure for DKEGGSSA: “no binding”; for YKGAASGV: “binds”.

As for VKGKDSGD, the non-specific binding call is “binds”. The same measure for VKEKGDSA: “no binding”. As for SKGASFAY, the non-specific binding call is listed as “binds”.

As to VKARGAGS, the non-specific binding call is given as “binds”. With VKARGAGV, the non-specific binding call is recorded as “binds”. The same measure for AKGGAAVY: “no binding”; for SKEAGYSV: “binds”. In the case of VKGAGSVV, the non-specific binding call was “no binding”. Consider VKGASDWA, for which the non-specific binding call was “no binding”. The same measure for YKAKGSAV: “binds”. The same measure for YKEGGSGD: “no binding”.

In the case of VKERGDAV, the non-specific binding call is “no binding”. The same measure for YKARGAGV: “binds”; for YKARGAGA: “binds”; for VKARGAAV: “binds”. As for SKERGDGA, the entry is “no binding”.

With VKGAGAAS, the non-specific binding call is “binds”.

With FKGEGAAD, the non-specific binding call was “no binding”. With AKERGDGV, the non-specific binding call is listed as “no binding”. Take YKERDVGV: the non-specific binding call is given as “binds”.

As for FKATTVVD chain 1 S88F, the non-specific binding call is reported as “binds”.

For YKGGGYGA, the non-specific binding call is listed as “binds”. As for VKARGSAF, the non-specific binding call is listed as “binds”. The same measure for VKARGSAV: “binds”; for YKGGSSAA: “binds”; for YKGGSSAD: “binds”. The same measure for VKAGGSLY: “binds”. As for YKGGSSLD, the non-specific binding call is on record as “binds”. On to SKERGDVV, for which the non-specific binding call was “no binding”. As for SKERGDVA, the entry is “no binding”. The same measure for SKERGDVD: “no binding”; for YKGGSFGV: “binds”. As for VKGGNVGV, the entry is “binds”. For the variant YKGEDDVY, the non-specific binding call was “no binding”.

Consider YKARGAWD, for which the non-specific binding call is “binds”. The same measure for YKARGAWS: “binds”.

With YKARGAWA, the non-specific binding call is listed as “binds”. As for VKERGAVA, the entry is “no binding”; as for AKATADVD, “binds”.

On to YKGEGDVV, for which the non-specific binding call was “no binding”. The same measure for VKEGGSSA: “no binding”. The same measure for VKGGGFGA: “binds”. As for VKAKDAGY, the entry is “binds”. Regarding VKARGSVA, the non-specific binding call is reported as “binds”. The same measure for VKARGSVD: “binds”; for YKEKGDGA: “no binding”. The same measure for DKERGDLV: “no binding”. As for VKEKGDGS, the entry is “no binding”; as for VKEKGALD, “binds”; as for SKAGSDVA, “no binding”. Consider FKAGGSGA, for which the non-specific binding call is reported as “binds”. Consider FKATTSGA, for which the non-specific binding call is recorded as “binds”.

As to DKEEDSLA, the non-specific binding call is “no binding”. As for SKGEGDWA, the entry is “no binding”; as for DKEEADGV, “no binding”. As for YKGAGALD, the entry is “binds”; as for VKEKGDLA, “no binding”; as for VKEADDVA, “no binding”. For YKEGDSGV chain 1 R87K, the non-specific binding call is “no binding”. As for VKEKGYLV, the entry is “no binding”; as for YKEKGAVD, “binds”. As for FKGGGFGA, the entry is “binds”.

As to FKARGALV, the non-specific binding call is “binds”. The same measure for YKGEGYGV: “binds”. As for SKERGSLV, the entry is “no binding”; as for VKARGSLA, “binds”; as for FKGEGAGV, “no binding”. DKEGGSGV: the non-specific binding call is reported as “no binding”. Turning to FKGEGDVA, the non-specific binding call was “no binding”. With FKGEGDVY, the non-specific binding call is listed as “no binding”. As for DKEGGDVA, the entry is “no binding”. In the case of DKEGGDVD, the non-specific binding call was “no binding”. The same measure for DKEGGDVV: “no binding”; for AKGKASSD: “binds”. As for VKGEAAWD, the entry is “binds”; as for YKAGGSLF, “binds”.

Consider YKARGSSS, for which the non-specific binding call is “binds”.

As to VKGGSFGS, the non-specific binding call is given as “binds”. The same measure for YKARSALF: “binds”. As for SKAKGSSD, the entry is “binds”; as for YKGGGALD, “binds”.

As to VKEGGDVA, the non-specific binding call was “no binding”. As for VKEGGDVV, the entry is “no binding”. As for SKGENALY, the entry is “no binding”; as for SKAKGSGV, “binds”. The same measure for SKAKGSGA: “binds”; for FKGEGFGS: “binds”; for YKGKDSSV: “no binding”.

Take VKEKGDVA: the non-specific binding call is reported as “no binding”. For the variant FKARGSVD, the non-specific binding call is “binds”. In the case of VKAGSAAA, the non-specific binding call is “no binding”. As for FKARGASV, the entry is “binds”. The same measure for YKARGAAD: “binds”; for YKARGAAY: “binds”; for FKGGGAVY: “binds”. The same measure for AKGEDSVF: “no binding”; for FKGEGSLY: “no binding”. Turning to FKGEGSLV, the non-specific binding call is listed as “no binding”.

Regarding FKARDSSA, the non-specific binding call was “binds”. Turning to VKGESAGV, the non-specific binding call was “no binding”. As for YKARGSWD, the entry is “binds”. The same measure for YKAKGALD: “binds”. The same measure for AKGGGDVV: “no binding”; for DKGGSSLD: “no binding”. Turning to DKATGDAY, the non-specific binding call is “no binding”. With VKARNDLV, the non-specific binding call is reported as “no binding”. The same measure for YKARGALS: “binds”; for YKGEGFSS: “binds”; for FKGGNVGV: “binds”. The same measure for VKARGSGV: “binds”. The same measure for VKARGSGA: “binds”; for VKARGSGD: “binds”; for YKGAGSAD: “binds”. YKGGSAWY: the non-specific binding call is “binds”.

As for YKGAAFAD, the non-specific binding call is reported as “binds”. As for DKEGGDLA, the entry is “no binding”.

The values above are taken from the emibetuzumab library of Makowski et al. (2022).
